Measurements taken from paper PMC8993412 (Journal of Molecular Biology, 2022).

Biological target: SARS-CoV-2 nucleocapsid (N) protein, full-length (recombinant) (SARS-CoV-2, reference, UniProt P0DTC9)
Test: ELISA

B1: IgG 16485 (anti-N) (antibody, V domains shown)
VH: EVQLVESGGGLVQPGGSLRLSCAASGFNIYSSSIHWVRQAPGKGLEWVAYISSYSGYTSYADSVKGRFTISADTSKNTAYLQMNSLRAEDTAVYYCARVPWYYAYSFGFFASFGGMDYWGQGTLVTVSS
VL: DIQMTQSPSSLSASVGDRVTITCRASQSVSSAVAWYQQKPGKAPKLLIYSASSLYSGVPSRFSGSRSGTDFTLTISSLQPEDFATYYCQQYSGYHFFPITFGQGTKVEIK
- EC50: 0.019 µM
